From US20030148958A1 (PROCTER AND GAMBLE, published 2003)
Ends that are not written are not given here.

T1: corticotropin releasing factor 2 receptor
T1 sequence (Q13324 whole entry, species assumed, looked up): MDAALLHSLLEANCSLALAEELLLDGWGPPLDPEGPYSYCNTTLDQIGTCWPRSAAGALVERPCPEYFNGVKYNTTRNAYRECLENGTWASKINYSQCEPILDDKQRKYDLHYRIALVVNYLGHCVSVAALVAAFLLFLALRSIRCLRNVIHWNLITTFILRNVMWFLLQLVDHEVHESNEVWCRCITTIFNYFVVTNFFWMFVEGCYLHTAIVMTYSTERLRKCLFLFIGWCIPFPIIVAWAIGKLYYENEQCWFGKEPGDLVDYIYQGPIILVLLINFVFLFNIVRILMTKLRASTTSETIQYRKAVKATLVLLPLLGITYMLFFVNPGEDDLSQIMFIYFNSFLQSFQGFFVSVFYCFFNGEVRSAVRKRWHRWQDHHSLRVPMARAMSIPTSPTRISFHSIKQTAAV


These binders were tested against corticotropin releasing factor 1 receptor (assay: cell-based or functional assay).
Throughout, for CRF1R Emax: reference of the scale not given here.
Throughout, for CRF2R Emax: reference of the scale not given here.

| Binder | CRF1R EC50 [nM] | CRF1R Emax [%] |
| --- | --- | --- |
| ZGPPISIDLPFQLLRKMIEIEKQEKEKQQATTNRLLLDRV (C-terminal amide) [SEQ ID NO 18] | 106 | 100 |
| ZGPPISIDLPFVLLRKMIEIEKQEKEKQQAANNRLLLDTI (C-terminal amide) [SEQ ID NO 190] | > 100 | 9 |
| ZGPPISIDLPFILLRKMIEIEKQEKEKQQAANNRLLLDTI (C-terminal amide) [SEQ ID NO 189] | 62.2 | 57 |
| ZGPPISIDLPFQLLRKMIEIEKQEKEKQQATTNRLLLARV (C-terminal amide) [SEQ ID NO 19] | 232 | 83 |
| ZGPPISIDLPFLLLRKMIEIEKQEKEKQQAANNRLLLDTI (C-terminal amide) [SEQ ID NO 191] | 63.7 | 65 |
| ZGPPISIDLPFQLLRKMIEIEKQEKEKQQATTNARLLDTV (C-terminal amide) [SEQ ID NO 20] | 906 | 60 |
| ZGPPISIDLPYQLLRKMIEIEKQEKEKQQAANNRLLLDTI (C-terminal amide) [SEQ ID NO 202] | 404 | 100 |
| DNPSLSIDLPLHLLRTLLELARTQSQRERAEQNAIIFASV-NH2 [SEQ ID NO 179] | 477 | 78.9 |
| DNPSLSIDLPFFLLRTLLELARTQSQRERAEQNAIIFASV-NH2 [SEQ ID NO 184] | 486 | 77.3 |
| DNPSLSIDLPLFLLRTLLELARTQSQRERAEQNAIIFASV-NH2 [SEQ ID NO 178] | 1000 | 55.7 |
| DNPSLSIDLPFLLLRTLLELARTQSQRERAEQNAIIFASV-NH2 [SEQ ID NO 180] | 125 | 99.3 |
| DNPSLSIDLPFILLRTLLELARTQSQRERAEQNAIIFASV-NH2 [SEQ ID NO 181] | 154 | 100 |
| DNPSLSIDLPFYLLRTLLELARTQSQRERAEQNAIIFASV-NH2 [SEQ ID NO 183] | 415 | 57.5 |
| DNPSLSIDLPFQLLRTLLELARTQSQRERAEQNAIIFASV-NH2 [SEQ ID NO 182] | 409 | 89.7 |
| DNPSLSIDLPFHLLRTLLELARTQSQRERAEQNAIIFASV-NH2 [SEQ ID NO 185] | 358 | 95.8 |
| ZGPPISIDLPHWLLRKMIEIEKQEKEKQQAANNRLLLDTI (C-terminal amide) [SEQ ID NO 186] | 323 | 100 |

| Binder | CRF1R EC50 [nM] | CRF1R Emax [%] |
| --- | --- | --- |
| ZGPPISIDLPLLLLRKMIEIEKQEKEKQQAANNRLLLDTI (C-terminal amide) [SEQ ID NO 188] | 162 | 96 |
| ZGPPISIDLPYILLRKMIEIEKQEKEKQQAANNRLLLDTI (C-terminal amide) [SEQ ID NO 204] | 32.1 | 74 |
| ZGPPISIDLPLVLLRKMIEIEKQEKEKQQAANNRLLLDTI (C-terminal amide) [SEQ ID NO 193] | 266 | 95 |
| ZGPPISIDLPYVLLRKMIEIEKQEKEKQQAANNRLLLDTI (C-terminal amide) [SEQ ID NO 201] | 99.6 | 80 |
| ZGPPISIDLPLFLLRKMIEIEKQEKEKQQAANNRLLLDTI (C-terminal amide) [SEQ ID NO 195] | 103 | 93 |
| ZGPPISIDLPAHLLRKMIEIEKQEKEKQQAANNRLLLDTI (C-terminal amide) [SEQ ID NO 206] | 696 | 97 |
| ZGPPISIDLPYTLLRKMIEIEKQEKEKQQAANNRLLLDTI (C-terminal amide) [SEQ ID NO 200] | 188 | 99 |
| ZGPPISIDLPHHLLRKMIEIEKQEKEKQQAANNRLLLDTI (C-terminal amide) [SEQ ID NO 205] | 126 | 88 |
| ZGPPISIDLPQLLLRKMIEIEKQEKEKQQAANNRLLLDTI (C-terminal amide) [SEQ ID NO 196] | 447 | 96 |
| ZGPPISIDLPIWLLRKMIEIEKQEKEKQQAANNRLLLDTI (C-terminal amide) [SEQ ID NO 192] | 562 | 99 |
| ZGPPISIDLPQHLLRKMIEIEKQEKEKQQAANNRLLLDTI (C-terminal amide) [SEQ ID NO 207] | 466 | 88 |
| ZGPPISIDLPWFLLRKMIEIEKQEKEKQQAANNRLLLDTI (C-terminal amide) [SEQ ID NO 187] | 31.6 | 72 |
| ZGPPISIDLPQILLRKMIEIEKQEKEKQQAANNRLLLDTI (C-terminal amide) [SEQ ID NO 199] | 706 | 93 |
| ZGPPISIDLPLILLRKMIEIEKQEKEKQQAANNRLLLDTI (C-terminal amide) [SEQ ID NO 194] | 106 | 94 |
| ZGPPISIDLPYLLLRKMIEIEKQEKEKQQAANNRLLLDTI (C-terminal amide) [SEQ ID NO 203] | 76.2 | 86 |

What follows are binders tested against T1, corticotropin releasing factor 2 … (assay: cell-based or functional assay).

| Binder | CRF2R EC50 [nM] | CRF2R Emax [%] |
| --- | --- | --- |
| ZGPPISIDLPFQLLRKMIEIEKQEKEKQQATTNRLLLDRV (C-terminal amide) [SEQ ID NO 18] | 5.29 | 97 |
| ZGPPISIDLPFVLLRKMIEIEKQEKEKQQAANNRLLLDTI (C-terminal amide) [SEQ ID NO 190] | 39.6 | 31 |
| ZGPPISIDLPFILLRKMIEIEKQEKEKQQAANNRLLLDTI (C-terminal amide) [SEQ ID NO 189] | 7 | 96 |
| ZGPPISIDLPFQLLRKMIEIEKQEKEKQQATTNRLLLARV (C-terminal amide) [SEQ ID NO 19] | 7.42 | 75 |
| ZGPPISIDLPFLLLRKMIEIEKQEKEKQQAANNRLLLDTI (C-terminal amide) [SEQ ID NO 191] | 8.3 | 100 |
| ZGPPISIDLPFQLLRKMIEIEKQEKEKQQATTNARLLDTV (C-terminal amide) [SEQ ID NO 20] | 7.81 | 99 |
| ZGPPISIDLPYQLLRKMIEIEKQEKEKQQAANNRLLLDTI (C-terminal amide) [SEQ ID NO 202] | 8.7 | 99 |
| DNPSLSIDLPLHLLRTLLELARTQSQRERAEQNAIIFASV-NH2 [SEQ ID NO 179] | 10.2 | 92.5 |
| DNPSLSIDLPFFLLRTLLELARTQSQRERAEQNAIIFASV-NH2 [SEQ ID NO 184] | 3.72 | 96.5 |
| DNPSLSIDLPLFLLRTLLELARTQSQRERAEQNAIIFASV-NH2 [SEQ ID NO 178] | 5.17 | 96.5 |
| DNPSLSIDLPFLLLRTLLELARTQSQRERAEQNAIIFASV-NH2 [SEQ ID NO 180] | 3.14 | 95.7 |
| DNPSLSIDLPFILLRTLLELARTQSQRERAEQNAIIFASV-NH2 [SEQ ID NO 181] | 5.22 | 97.8 |
| DNPSLSIDLPFYLLRTLLELARTQSQRERAEQNAIIFASV-NH2 [SEQ ID NO 183] | 7.93 | 100 |
| DNPSLSIDLPFQLLRTLLELARTQSQRERAEQNAIIFASV-NH2 [SEQ ID NO 182] | 7.21 | 91.4 |
| DNPSLSIDLPFHLLRTLLELARTQSQRERAEQNAIIFASV-NH2 [SEQ ID NO 185] | 8.98 | 100 |
| ZGPPISIDLPHWLLRKMIEIEKQEKEKQQAANNRLLLDTI (C-terminal amide) [SEQ ID NO 186] | 25.1 | 100 |

| Binder | CRF2R EC50 [nM] | CRF2R Emax [%] |
| --- | --- | --- |
| ZGPPISIDLPLLLLRKMIEIEKQEKEKQQAANNRLLLDTI (C-terminal amide) [SEQ ID NO 188] | 14.6 | 100 |
| ZGPPISIDLPYILLRKMIEIEKQEKEKQQAANNRLLLDTI (C-terminal amide) [SEQ ID NO 204] | 3.6 | 93 |
| ZGPPISIDLPLVLLRKMIEIEKQEKEKQQAANNRLLLDTI (C-terminal amide) [SEQ ID NO 193] | 10.1 | 97 |
| ZGPPISIDLPYVLLRKMIEIEKQEKEKQQAANNRLLLDTI (C-terminal amide) [SEQ ID NO 201] | 5 | 100 |
| ZGPPISIDLPLFLLRKMIEIEKQEKEKQQAANNRLLLDTI (C-terminal amide) [SEQ ID NO 195] | 18.8 | – |
| ZGPPISIDLPAHLLRKMIEIEKQEKEKQQAANNRLLLDTI (C-terminal amide) [SEQ ID NO 206] | 30.5 | 97 |
| ZGPPISIDLPYTLLRKMIEIEKQEKEKQQAANNRLLLDTI (C-terminal amide) [SEQ ID NO 200] | 8.8 | 100 |
| ZGPPISIDLPHHLLRKMIEIEKQEKEKQQAANNRLLLDTI (C-terminal amide) [SEQ ID NO 205] | 25 | 93 |
| ZGPPISIDLPQLLLRKMIEIEKQEKEKQQAANNRLLLDTI (C-terminal amide) [SEQ ID NO 196] | 27.7 | 97 |
| ZGPPISIDLPIWLLRKMIEIEKQEKEKQQAANNRLLLDTI (C-terminal amide) [SEQ ID NO 192] | 66.8 | 97 |
| ZGPPISIDLPQHLLRKMIEIEKQEKEKQQAANNRLLLDTI (C-terminal amide) [SEQ ID NO 207] | 61.4 | 96 |
| ZGPPISIDLPWFLLRKMIEIEKQEKEKQQAANNRLLLDTI (C-terminal amide) [SEQ ID NO 187] | 10.3 | 100 |
| ZGPPISIDLPQILLRKMIEIEKQEKEKQQAANNRLLLDTI (C-terminal amide) [SEQ ID NO 199] | 8.5 | 92 |
| ZGPPISIDLPLILLRKMIEIEKQEKEKQQAANNRLLLDTI (C-terminal amide) [SEQ ID NO 194] | 5 | 96 |
| ZGPPISIDLPYLLLRKMIEIEKQEKEKQQAANNRLLLDTI (C-terminal amide) [SEQ ID NO 203] | 5.2 | 94 |
